Eight molecules from patent US20180289790A1 (Bristol-Myers Squibb, published 2018) can be followed below.

Residue numbers refer to the chain shown, from its start. Numbers in names are those of the source.

A word on the Kd: it is a measure of binding affinity in units of concentration. Read a low Kd as tighter binding.

The target in assay [1] is human ICOS (huICOS), on activated human CD4+ T cells (human) (UniProt Q9Y6W8). Put plainly: cell-based or functional assay.
Another assay addresses hCD32a-R131 (human) (UniProt P12318). As to the kind of experiment: method not stated (Table 9, 'µM Kd').
The target in a further assay is hCD16a-V158 (human) (UniProt P08637). As to the kind of experiment: method not stated (Table 9, 'µM Kd').
The target in the next assay is hCD32a-H131 (human) (UniProt P12318). Put plainly: method not stated (Table 9, 'µM Kd').
The next assay deals with hCD32b (human) (UniProt P31994). Put plainly: method not stated (Table 9, 'µM Kd').
The target in a further assay is hCD64 (human) (UniProt P12314). Put plainly: method not stated (Table 9, 'µM Kd').
Another assay addresses hCD16a-F158 (human) (UniProt P08637). As to the kind of experiment: method not stated (Table 9, 'µM Kd').
In assay [2] the target is T1, huICOS/Fc (human, UniProt Q9Y6W8 21-140).
T1 construct: also called huICOS polypeptide construct; human ICOS antigen; not shown: Fc part
T1 sequence: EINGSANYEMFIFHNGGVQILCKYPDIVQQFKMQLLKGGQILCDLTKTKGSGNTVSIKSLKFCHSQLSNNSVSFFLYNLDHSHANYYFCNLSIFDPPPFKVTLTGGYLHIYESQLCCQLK
As to the kind of experiment: SPR binning: reference antibody on chip, test antibody pre-incubated with huICOS/Fc.

The target in assay [3] is T1, huICOS/Fc. As to the kind of experiment: HDX-MS, ICOS-Fc mixed with mAb at 1:1 ratio.
Procedure: ICOS-Fc was mixed with mAbs at 1:1 ratio and HDX-MS was run for one minute, 10 minutes, 4 hours in duplicate.
For assay [4], the target named is T2, human ICOS Fc (R&D Systems, 169-CS-050) (human, UniProt Q9Y6W8 21-140).
T2 construct: Bought construct; also called human ICOS with an Fc tag; not shown: Fc tag
T2 sequence: T1 sequence
As to the kind of experiment: SPR (Biacore T200), 37 °C, human ICOS Fc captured by anti-hFc on a CM4 chip, Fab as analyte, 1:1 Langmuir model. (In general: In SPR one partner is held on a chip, and binding of the other changes the refractive index at the surface.)

hCD32b (human), sequence (P31994 43-217 limits assumed): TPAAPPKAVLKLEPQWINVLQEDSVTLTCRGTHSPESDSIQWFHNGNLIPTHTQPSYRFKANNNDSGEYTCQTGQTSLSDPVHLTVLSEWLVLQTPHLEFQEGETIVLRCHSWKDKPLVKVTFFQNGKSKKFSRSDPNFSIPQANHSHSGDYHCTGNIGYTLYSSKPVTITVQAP
hCD32a-H131 (human), sequence (P12318 36-218 limits assumed): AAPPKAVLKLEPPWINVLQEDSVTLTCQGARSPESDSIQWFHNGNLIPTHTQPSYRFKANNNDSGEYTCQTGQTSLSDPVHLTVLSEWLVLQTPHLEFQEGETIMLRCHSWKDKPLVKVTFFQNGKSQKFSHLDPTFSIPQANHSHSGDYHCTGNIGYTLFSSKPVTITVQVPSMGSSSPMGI
hCD32a-R131 (human), sequence (P12318 36-218 H167R limits assumed): as the sequence (P12318 36-218 limits assumed) above, with H132R counted along it
hCD64 (human), sequence (P12314 16-288 limits assumed): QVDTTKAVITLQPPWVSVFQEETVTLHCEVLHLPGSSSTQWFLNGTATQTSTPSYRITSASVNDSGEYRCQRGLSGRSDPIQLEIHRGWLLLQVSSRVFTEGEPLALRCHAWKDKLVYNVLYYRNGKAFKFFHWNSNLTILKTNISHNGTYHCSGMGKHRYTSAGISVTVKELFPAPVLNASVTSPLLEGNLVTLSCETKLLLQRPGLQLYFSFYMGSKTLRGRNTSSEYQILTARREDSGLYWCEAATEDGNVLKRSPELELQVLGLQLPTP
hCD16a-V158 (human), sequence (P08637 17-208 F176V limits assumed): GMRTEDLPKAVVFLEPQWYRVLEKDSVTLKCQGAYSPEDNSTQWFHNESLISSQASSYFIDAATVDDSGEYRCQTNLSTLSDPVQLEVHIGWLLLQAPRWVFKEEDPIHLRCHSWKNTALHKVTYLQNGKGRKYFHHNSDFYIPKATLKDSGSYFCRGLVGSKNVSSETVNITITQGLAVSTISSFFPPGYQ
hCD16a-F158 (human), sequence (P08637 17-208 limits assumed): as the sequence (P08637 17-208 F176V limits assumed) above, with V160F counted along it

As to “ICOS.4 (chimeric antibody with the variable regions of hamster antibody C398.4A and human IgG1f constant regions)”, the EC50 of interferon-gamma secretion, CHO-OKT3-CD32 / CD4+CD25- T cell co-culture in assay [1] was found to be 0.018 µg/mL.

In the case of “human IgG1f (wild type), as in Table 9 (antibody)”, the Kd came to 960 µM with hCD32a-R131 (human); 97 µM in the assay with hCD16a-V158 (human); 530 µM in the assay with hCD32a-H131 (human); 3400 µM with hCD32b (human); 0.2 µM in the assay with hCD64 (human); 200 µM in the assay with hCD16a-F158 (human).

Take “human IgG1f-S267E, as in Table 9 (antibody)”: the Kd with hCD32a-R131 (human) was 31 µM; with hCD32a-H131 (human), 650 µM; with hCD32b (human), 87 µM; in the assay with hCD64 (human), 0.2 µM.

B1: 17C4 (antibody, V domains shown)
VH: QVTLRESGPALVKPTQTLTLTCTFSGFSLSTSGMCVSWIRQPPGKALEWLALIDWDDDKFYSTSLKTRLTISKDTSKNQVVLTMTNMDPVDTATYYCARMSTPTYYGLDVWGQGTTVTVSS
VL: DIQMTQSPSSLSASVGDRVTITCRASQGISSWLAWYQQKPEKAPKSLIYAASSLQSGVPSRFSGSGSGTDFTLTISSLQPEDFATYYCQQYNSYPLTFGGGTKVEIK
notes: Fully human hybridoma antibody
On to B1, for which, in the assay with huICOS/Fc [2], the binding result is listed as “binds”.

B2: 9D5 (antibody, V domains shown)
VH: QITLKESGPTLVKPTQTLTLTCTFSGFSLGTSGLGVGWIRQPPGKALEWLAFIYWDDDKRYSPSLKSRLTITKDTSKNQVVLTMTNMDPVDTATYYCAHRRGFFDYWGQGTLVTVSS
VL: B1 VL
notes: as for B1
Consider B2, for which, in the assay with huICOS/Fc [3], the binding result is “binds”.

B3: 3E8 (antibody, V domains shown)
VH: QVQLVESGGGVVQPGMSLRLSCAASGFTFSTYGMQWVRQAPGKGLEWVTVIWHDGSHKDYADSVKGRFTISRDNSKNTMYLQMNSLRAEDTAVYYCARDRQTGEGYFDFWGQGTLVTVSS
VL: B1 VL with L96Y, G100Q, V104L
notes: as for B1
In the case of B3, in the assay with huICOS/Fc [2], the binding result was “binds”.

B4: ICOS.33 IgG1f S267E Fab fragment (Lot PC-1804-04) (Fab, V domains shown)
VH: EVQLVESGGGLVKPGGSLRLSCAASGFTFSDYFMHWVRQAPGKGLEWVGVIDTKSFNYATYYSDLVKGRFTISRDDSKNTLYLQMNSLKTEDTAVYYCTATIAVPYYFDYWGQGTLVTVSS
VL: DIQMTQSPSSLSASVGDRVTITCQASQDISNYLSWYQQKPGKAPKLLIYYTNLLAEGVPSRFSGSGSGTDFTFTISSLQPEDIATYYCQQYYNYRTFGPGTKVDIKR
notes: Fab of m1; also called Fab fragment of ICOS.33 IgG1f S267E
In assay [4], B4 showed a Kd of 0.052 to 0.065 µM.

B5: IgG-2644 (antibody, V domains shown)
VH: EVQLLESGGGLVQPGGSLRLSCEASGFIFKYYAMSWVRQAPGKGLEWVSGISGSGGSTYYADSVKGRFTISRDNSKHTLYLQMNSLRAEDTAVYYCAKDGDFDWIHYYYGMDVWGQGTTVTVSS
VL: AIQLTQSPSSLSASVGDRVTITCRASQGISSALAWYQQKPGKAPKLLIYDASSLESGVPSRFSGSGSGTDFTLTISSLQPEDFATYYCQQFNSYPHTFGGGTKVEIKR
notes: Human antibody from mRNA display, cloned into IgG expression vectors
Regarding B5, in the assay with huICOS/Fc [2], the binding result is “binds”.
